biological target: NMDA receptor of well-washed rat forebrain membranes (rat) (UniProt Q9R1M7); assay: not given
Sequence (Q9R1M7 24-1135): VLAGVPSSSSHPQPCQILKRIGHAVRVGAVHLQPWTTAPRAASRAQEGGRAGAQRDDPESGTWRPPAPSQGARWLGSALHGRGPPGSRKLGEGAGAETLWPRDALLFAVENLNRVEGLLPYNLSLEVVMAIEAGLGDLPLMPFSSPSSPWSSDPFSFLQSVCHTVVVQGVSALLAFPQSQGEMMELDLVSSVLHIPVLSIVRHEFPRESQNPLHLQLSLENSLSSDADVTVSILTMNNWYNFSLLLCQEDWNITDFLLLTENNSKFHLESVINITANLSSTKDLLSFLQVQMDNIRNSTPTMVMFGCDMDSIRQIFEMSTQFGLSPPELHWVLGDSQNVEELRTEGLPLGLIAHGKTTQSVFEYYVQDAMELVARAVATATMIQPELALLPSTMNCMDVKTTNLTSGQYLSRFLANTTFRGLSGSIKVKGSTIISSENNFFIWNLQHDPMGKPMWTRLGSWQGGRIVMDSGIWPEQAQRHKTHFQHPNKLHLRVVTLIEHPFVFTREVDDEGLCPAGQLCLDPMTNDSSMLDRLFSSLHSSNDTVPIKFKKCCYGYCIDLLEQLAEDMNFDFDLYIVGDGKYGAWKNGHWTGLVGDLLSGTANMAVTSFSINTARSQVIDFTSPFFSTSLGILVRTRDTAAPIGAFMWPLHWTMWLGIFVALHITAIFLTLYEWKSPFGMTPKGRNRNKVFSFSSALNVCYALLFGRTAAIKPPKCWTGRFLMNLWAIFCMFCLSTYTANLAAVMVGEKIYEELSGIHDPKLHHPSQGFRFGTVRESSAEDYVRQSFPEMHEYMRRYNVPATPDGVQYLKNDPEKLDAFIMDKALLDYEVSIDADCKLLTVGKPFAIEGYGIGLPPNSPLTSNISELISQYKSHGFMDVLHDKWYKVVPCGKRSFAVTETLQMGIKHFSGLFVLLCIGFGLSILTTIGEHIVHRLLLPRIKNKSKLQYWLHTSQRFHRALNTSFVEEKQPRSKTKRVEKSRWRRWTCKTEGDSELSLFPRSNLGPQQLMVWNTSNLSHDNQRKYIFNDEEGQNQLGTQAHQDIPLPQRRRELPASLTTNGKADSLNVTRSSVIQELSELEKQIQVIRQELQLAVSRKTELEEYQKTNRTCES

| Substance | IC50 |
| --- | --- |
| Ala7-Con-G (peptide) | > 2500 nM |

biological target: NMDA receptor of well-washed rat forebrain membranes (rat) (UniProt Q9R1M7); assay: displacement of [3H]ifenprodil, polyamine-sensitive site

| Substance | IC50 |
| --- | --- |
| Ala7-Con-G (peptide) | 2500 nM |

biological target: NMDA receptor of well-washed rat forebrain membranes (rat) (UniProt Q9R1M7); assay: cell-based or functional assay

| Substance | % Inh, spermine-enhanced [3H]MK-801 binding | % Sti, [3H]MK-801 binding without spermine | IC (µM), inhibition of spermine-enhanced [3H]MK-801 binding | EC (µM), stimulation of [3H]MK-801 binding without spermine | IC50, antagonism of Gly-stimulated [3H]MK-801 binding, representative experiment | IC50, inhibition of spermine-enhanced [3H]MK-801 binding | IC50, inhibition of spermine-enhanced [3H]MK-801 binding, typical experiment | IC50, reduction of Gly stimulated [3H]MK-801 binding | IC50, reduction of spermine stimulated [3H]MK-801 binding | potency against spermine relative to Con-G |
| --- | --- | --- | --- | --- | --- | --- | --- | --- | --- | --- |
| Tyr(oMe)^o-Con-G (peptide) | 0% | 0% |  |  |  |  |  |  |  |  |
| Ser(p)7-Con-G (peptide) | 50% | 0% | 1.04 µM |  |  |  |  |  |  |  |
| Con-G(14-17) (peptide) | 0% | 61% |  | 1.3 µM |  |  |  |  |  |  |
| Phe(pCl)^o-Con-G (peptide) | 0% | 0% |  |  |  |  |  |  |  |  |
| Ac-Con-G (peptide) | 0% | 0% |  |  |  |  |  |  |  |  |
| Con-G-OH (peptide) | 0% | 0% |  |  |  |  |  |  |  |  |
| Ala7-Con-G (peptide) | 100% | 0% | 0.046 µM |  | 625 nM | 45 nM | 50 nM | 500 nM | 45 nM | 4 fold |
| Ala7,10,14-Con-G (peptide) | 100% | 0% | 0.5 µM |  |  |  |  |  |  |  |
| Asn(GlcNAc)^o-Con-G (peptide) | 38% | 0% | 8.8 µM |  |  |  |  |  |  |  |
| Ala4-Con-G (peptide) | 0% | 0% |  |  |  |  |  |  |  |  |
| Glu7,10,14-Con-G (peptide) | 70% | 0% | > 5 µM |  |  |  |  |  |  |  |
| Con-G(12-15) (peptide) | 0% | 20% |  | 69.8 µM |  |  |  |  |  |  |
| ConG(1-5)AA(14-17) (peptide) |  | 0% |  |  |  |  |  |  |  |  |
| Con-G(1-5) (peptide) | 50% | 0% | 7.43 µM |  |  |  |  |  |  |  |
| Glu 3,4,7,10,14-Con-G(2-17) (peptide) | 70% | 33% | 5.4 µM | 0.9 µM |  |  |  |  |  |  |
| Tyr^o-Glu3,4,7,10,14-Con-G (peptide) | 0% | 31% |  | 2.7 µM |  |  |  |  |  |  |
| Tyr^o-Con-G (peptide) | 0% | 0% |  |  |  |  |  |  |  |  |
| Asn^o-Con-G (peptide) | 83% | 0% | 8.7 µM |  |  |  |  |  |  |  |
| Ser3-Con-G (peptide) | 23% | 62% | 3.6 µM | 8.4 µM |  |  |  |  |  |  |
| Ser14-Con-G (peptide) | 100% | 0% | 0.16 µM |  |  |  |  |  |  |  |
| ConG(1-6)A5(14-17) (peptide) |  | 0% |  |  |  |  |  |  |  |  |
| Ac-Tyr^o-Con-G (peptide) | 73% | 0% | 18.3 µM |  |  |  |  |  |  |  |
| Ser4-Con-G (peptide) | 0% | 0% |  |  |  |  |  |  |  |  |
| ConG(1-5)(14-17) (peptide) | 15% | 0% | 100 µM |  |  |  |  |  |  |  |
| Ser(p)3-Con-G (peptide) | 34% | 68% | 0.9 µM | 3.5 µM |  |  |  |  |  |  |
| ConG(1-5)AAAA(14-17) (peptide) |  | 0% |  |  |  |  |  |  |  |  |
| ConG(1-6)A7(14-17) (peptide) |  | 0% |  |  |  |  |  |  |  |  |

| Substance | % Inh, spermine-enhanced [3H]MK-801 binding | % Sti, [3H]MK-801 binding without spermine | IC (µM), inhibition of spermine-enhanced [3H]MK-801 binding | EC (µM), stimulation of [3H]MK-801 binding without spermine | IC50, antagonism of Gly-stimulated [3H]MK-801 binding, representative experiment | IC50, inhibition of spermine-enhanced [3H]MK-801 binding | IC50, inhibition of spermine-enhanced [3H]MK-801 binding, typical experiment | IC50, reduction of Gly stimulated [3H]MK-801 binding | IC50, reduction of spermine stimulated [3H]MK-801 binding | potency against spermine relative to Con-G |
| --- | --- | --- | --- | --- | --- | --- | --- | --- | --- | --- |
| Glu10,14-Con-G(9-17) (peptide) | 0% | 0% |  |  |  |  |  |  |  |  |
| Glu4-Con-G (peptide) | 0% | 0% |  |  |  |  |  |  |  |  |
| ConG(1-5)GGGG(14-17) (peptide) |  | 0% |  |  |  |  |  |  |  |  |
| Ser10-Con-G (peptide) | 100% | 0% | 1.8 µM |  |  |  |  |  |  |  |
| di-iodo-Tyr7-Con-G (peptide) | 100% | 0% | 0.5 µM |  |  |  |  |  |  |  |
| Ala10-Con-G (peptide) | 100% | 0% | 1.1 µM |  |  |  |  |  |  |  |
| Ser7-Con-G (peptide) | 100% | 0% | 0.25 µM |  |  |  |  |  |  |  |
| Glu 7,10,14-Con-G(6-17) (peptide) | 0% | 0% |  |  |  |  |  |  |  |  |
| tBu-Tyr^o-Con-G (peptide) | 29% | 69% | 1.5 µM | 1 µM |  |  |  |  |  |  |
| Tyr3-Con-G (peptide) | 0% | 0% |  |  |  |  |  |  |  |  |
| iodo-Tyr7-Con-G (peptide) | 100% | 0% | 0.5 µM |  |  |  |  |  |  |  |
| D-Glu3,4,7,10,14-Con-G (peptide) | 0% | 30% |  | 5.8 µM |  |  |  |  |  |  |
| Glu14-Con-G(12-17) (peptide) | 0% | 30% |  | 47 µM |  |  |  |  |  |  |
| Ser(p)10-Con-G (peptide) | 100% | 0% | 0.56 µM |  |  |  |  |  |  |  |
| Ser^o-Con-G (peptide) | 41% | 0% | 6.8 µM |  |  |  |  |  |  |  |
| Ser(p)14-Con-G (peptide) | 31% | 0% | 1.12 µM |  |  |  |  |  |  |  |
| Con-G(12-17) (peptide) | 0% | 20% |  | 58 µM |  |  |  |  |  |  |
| Ala3-Con-G (peptide) | 34% | 0% | 1.8 µM |  |  |  |  |  |  |  |
| Tyr(p)^o-Con-G (peptide) | 0% | 0% |  |  |  |  |  |  |  |  |
| Ala14-Con-G (peptide) | 100% | 0% | 0.16 µM |  |  |  |  |  |  |  |
| Phe^o-Con-G (peptide) | 51% | 53% | 6.1 µM | 6.8 µM |  |  |  |  |  |  |
| Con-G(15-17) (peptide) | 0% | 20% |  | 61.7 µM |  |  |  |  |  |  |
| Tyr7-Con-G (peptide) | 100% | 0% | 0.5 µM |  |  |  |  |  |  |  |
| Glu3,4,7,10,14-Con-G (peptide) | 22% | 79% | 8.5 µM | 6.7 µM |  |  |  |  |  |  |
| ConG(1-5)GG(14-17) (peptide) |  | 0% |  |  |  |  |  |  |  |  |
| Ser(p)4-Con-G (peptide) | 0% | 0% |  |  |  |  |  |  |  |  |

biological target: NMDA receptor of primary cultures of rat cerebellar granule cells (rat); assay: cell-based or functional assay

| Substance | IC50, inhibition of NMDA-stimulated increases in cyclic GMP formation | potency in the cyclic GMP assay relative to Con-G |
| --- | --- | --- |
| Ala7-Con-G (peptide) | 77 nM | 4 fold |
